Measurements as given in US20250011418A1 (ZIELBIO, published 2025).

Key:
[1] = molecular target: T1, Sec8-His (section 8 (Sec8), an antigenic region of CSP-1, tagged with a polyhistidine (His) tag); assay: ELISA, absorbance 650 nm against concentration in nM on a log axis
T1 construct: also called Sec8-His antigen
T1 chain: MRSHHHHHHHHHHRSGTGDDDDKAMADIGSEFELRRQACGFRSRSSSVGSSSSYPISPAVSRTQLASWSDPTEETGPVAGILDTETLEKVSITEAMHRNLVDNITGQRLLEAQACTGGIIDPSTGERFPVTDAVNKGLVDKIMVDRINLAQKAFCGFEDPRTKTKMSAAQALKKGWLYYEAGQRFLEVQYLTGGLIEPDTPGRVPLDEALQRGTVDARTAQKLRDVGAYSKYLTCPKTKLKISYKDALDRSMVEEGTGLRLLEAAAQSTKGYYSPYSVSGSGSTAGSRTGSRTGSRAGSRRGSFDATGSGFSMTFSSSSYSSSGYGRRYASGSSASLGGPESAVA
Method: (§1) The binding of humanized anti-CSP-1 antibody (Ab51) to an antigenic region of CSP-1 called section 8 (Sec8) was measured using ELISA.

[2] = molecular target: T1, Sec8-His (section 8 (Sec8), an …); assay: ELISA on Sec8-His
Method: as §1

[3] = molecular target: T2, Reb-His (Reb, a sub-fragment of Sec8, tagged with a polyhistidine (His) tag); assay: ELISA on REB-HIS, absorbance 650 nm; no unit stands beside the number, the concentration axis is in nM
T2 construct: also called Reb-His peptide
T2 chain: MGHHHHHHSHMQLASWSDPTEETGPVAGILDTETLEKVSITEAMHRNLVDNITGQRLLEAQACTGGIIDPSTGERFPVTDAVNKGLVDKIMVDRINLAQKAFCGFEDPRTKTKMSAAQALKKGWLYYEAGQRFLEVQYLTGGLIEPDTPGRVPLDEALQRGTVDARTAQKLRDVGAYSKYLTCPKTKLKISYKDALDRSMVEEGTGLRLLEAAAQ
Method: Furthermore, the binding of Ab51 to a sub-fragment of Sec8, called Reb, was measured using ELISA.

B1: humanized anti-CSP-1 antibody, Antibody 51 (Ab51) (antibody, V domains shown)
VH: EVQLVESGGGLVQPGGSLRLSCAASGFTFSRYGMSWVRQAPGKRLEWVATISIGGTYTYYPDSMKGRFTISRDNSKNTLYLQMNSLRAEDTAMYYCARRGYGQYSYYGLDYWGQGTLVTVSS
VL: DIVMTQSALSNPVTLGQSASISCRSSKSLLHSQGITYLYWYLQKPGQSPQLLIYQMSNRASGVPDRFSSSGSGTDFTLKISRVEAEDVGVYYCAQNLELPLTFGQGTKLEIK
notes: also called Antibody Number 51; huZB131
B1 was tested, and the “EC50 (read off the curve)” value [1] was ~400 pM, the Kd [2] was 441 pM and the EC50 [3] was 124 pM.
